Data taken from publication PMC7533328, “Sulfane sulfur‐activated actinorhodin production and sporulation is maintained by a natural gene circuit in Streptomyces coelicolor”.

T1: ScCsoR (Streptomyces coelicolor M145) (UniProt Q9RD62)
T1 sequence: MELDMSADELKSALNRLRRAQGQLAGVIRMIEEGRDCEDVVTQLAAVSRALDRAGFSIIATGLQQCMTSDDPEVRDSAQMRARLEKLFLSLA

T2: ScCsoR-C37S C38S (Streptomyces coelicolor M145), ORF:9a82776c
T2 sequence: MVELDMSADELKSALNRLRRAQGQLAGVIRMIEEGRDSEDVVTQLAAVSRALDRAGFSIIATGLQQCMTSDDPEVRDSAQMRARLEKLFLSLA

T3: ScCsoR-C37S-C66S C38S;C67S (Streptomyces coelicolor M145), ORF:9a82776c
T3 sequence: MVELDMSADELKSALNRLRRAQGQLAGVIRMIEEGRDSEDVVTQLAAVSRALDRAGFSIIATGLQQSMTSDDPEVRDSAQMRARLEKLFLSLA

T4: ScCsoR-C66S C67S (Streptomyces coelicolor M145), ORF:9a82776c
T4 sequence: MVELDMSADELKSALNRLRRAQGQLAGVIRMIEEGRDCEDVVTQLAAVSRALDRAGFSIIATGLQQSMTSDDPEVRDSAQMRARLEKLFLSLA

T5: ScCsoR (Streptomyces coelicolor M145, UniProt Q9RD62 1-92)
T5 sequence: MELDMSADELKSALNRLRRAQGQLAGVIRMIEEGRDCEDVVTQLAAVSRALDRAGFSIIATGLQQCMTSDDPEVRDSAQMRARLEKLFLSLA

B1: Scpdo 79-bp probe (bsI, bsII) (dsDNA)
DNA 1: CCTGGGTATATCTGTTACGGTGGCCGGAAGAGATACCCCAGGGGGTAATTCCGGAAGGAGAGCGTGCCGTGTTCTTTGT
DNA 2: ACAAAGAACACGGCACGCTCTCCTTCCGGAATTACCCCCTGGGGTATCTCTTCCGGCCACCGTAACAGATATACCCAGG
B2: hrdB 79-bp competitor DNA (dsDNA)
DNA 1: CATTCCCAAGCCGGTGGTCGGCCCCTGTCCGCCGTGGACGGGGCCGGAAGCCGTTTTTCAACGTTCCGAGAGGTTGTTC
DNA 2: GAACAACCTCTCGGAACGTTGAAAAACGGCTTCCGGCCCCGTCCACGGCGGACAGGGGCCGACCACCGGCTTGGGAATG

Key:
[1] = target: T1, ScCsoR (Streptomyces coelicolor M145); assay: EMSA; conditions: 20 mM Tris-HCl pH 8.0, 2 mM EDTA, 20 mM KCl, 0.5 mM DTT (or 1-3 mM HSnH), 4% Ficoll-400, 1 nM probe, 25 C, 15 min
[2] = test system: T2, ScCsoR-C37S C38S (Streptomyces coelicolor M145), ORF:9a82776c; assay: EMSA; conditions: 20 mM Tris-HCl pH 8.0, 2 mM EDTA, 20 mM KCl, 0.5 mM DTT (or 1-3 mM HSnH), 4% Ficoll-400, 1 nM probe, 25 C, 15 min
[3] = test system: T3, ScCsoR-C37S-C66S C38S;C67S (Streptomyces coelicolor M145), ORF:9a82776c; assay: EMSA; conditions: 20 mM Tris-HCl pH 8.0, 2 mM EDTA, 20 mM KCl, 0.5 mM DTT (or 1-3 mM HSnH), 4% Ficoll-400, 1 nM probe, 25 C, 15 min
[4] = test system: T4, ScCsoR-C66S C67S (Streptomyces coelicolor M145), ORF:9a82776c; assay: EMSA; conditions: 20 mM Tris-HCl pH 8.0, 2 mM EDTA, 20 mM KCl, 0.5 mM DTT (or 1-3 mM HSnH), 4% Ficoll-400, 1 nM probe, 25 C, 15 min
ScCsoR [5] = target: T5, ScCsoR; assay: EMSA; DTT; also with 50-fold competitor DNA; 20 mM Tris-HCl pH 8.0, 2 mM EDTA, 20 mM KCl, 0.5 mM DTT (or 1-3 mM HSnH), 4% Ficoll-400, 1 nM probe, 25 C, 15 min; conditions: protein: recombinant; tags: N-terminal His-tag (pET15b); chain copies: 4; label: 5'-biotin on strand 1; blunt
ScCsoR [6] = target: T5, ScCsoR; assay: competition EMSA; 50-fold excess over 79-bp probe; 20 mM Tris-HCl pH 8.0, 2 mM EDTA, 20 mM KCl, 0.5 mM DTT (or 1-3 mM HSnH), 4% Ficoll-400, 1 nM probe, 25 C, 15 min; conditions: protein: recombinant; tags: N-terminal His-tag (pET15b); chain copies: 4; blunt

| Molecule | binding [1] | other results |
| --- | --- | --- |
| AGGACGTCGACAAAGAACACGGCACGCTCTCCTTCCGGAATTACCCCCTGGGGTATCTCTTCCGGCCACCGTAACAGATATACCCAGGGGGGTATTGAGAGGGTGTGC (double strand) [Scpdo promoter f3] | binds |  |
| CGGTGACCTTCTCCGCCCCGTGTTCGGCGGCGAGGCGCACCGCGGCCTCGGCCAGAGCGGCACGTGTGGCCCGCTTCTTCCGCTCCCGCAGACCGCCCCCCGCGGCACCCTTCTCCGACATAAGTTGCATGGTATGCAAAGATGCATGACATGCAAAATTGGCGGGCGCCGACCCCGGAAGGGGATCGGCGCCCGCCGTCGTCGGTGCGGCTCAGGCGGCCAGTCGGGCCAGCGTCTCCTCG (double strand) [sco0622 promoter 242 bp] | no binding |  |
| CGACGACGGTGAACTCGGCCAGGCGGGCCGCCGCCTGCCCGGTGGTCAGTGCGGTGGCGGTTGCTGCGGGGGTGTTCACGGAGCGAGACCTTTCTCGTTGTTCGTCCCCCCGCGCGGTAGGATACCCGCGGGGGTATGTGGGGTTCGGTGAGGTATCGGGTGGAGGAGAGGGAGAAGCGTGGAGCTCGACATGTCGGCCGACGAACTGAAGTCGGCGCTGAACCGGCTGCGGCGCGCCCAGGGGCAGCTCGCGGGAGTCAT (double strand) [SccsoR-Scrhod intergenic region 261 bp] | binds |  |
| ACGGCGCGGGGGCGGCGTGAGCAGACGACGAGCACACCCTCTCAATACCCCCCTGGGTATATCTGTTACGGTGGCCGGAAGAGATACCCCAGGGGGTAATTCCGGAAGGA (double strand) [Scpdo promoter f2] | binds |  |
| GCCAGATAGCTGCGGTTGCCCAGTGACTCGGTCTCCAGGACGTCGACAAAGAACACGGCACGCTCTCCTTCCGGAATTACCCCCTGGGGTATCTCTTCCGGCCACCGTAACAGATATACCCAGGGGGGTATTGAGAGGGTGTGCTCGTCGTCTGCTCACGCCGCCCCCGCGCCGTCGCGGGCCGAGTGCGCCGCCGCTGCGCGCCTGTGCCGCGAGACCCGGGCAACTCCGGTGTACGACGCCGAAGTTGGGGTAC (double strand) [Scpdo promoter 256 bp] | binds | binding [2]: binds; binding [3]: binds; binding [4]: binds |
| GCCAGATAGCTGCGGTTGCCCAGTGACTCGGTCTCCAGGACGTCGACAAAGAACACGGCACGCTCTCCTTCCGGAATTACCCCCTGGGGTATCTCTTCCGGCCACCGT (double strand) [Scpdo promoter f4] | no binding |  |
| TCTGCTCACGCCGCCCCCGCGCCGTCGCGGGCCGAGTGCGCCGCCGCTGCGCGCCTGTGCCGCGAGACCCGGGCAACTCCGGTGTACGACGCCGAAGTTGGGGTAC (double strand) [Scpdo promoter f1] | no binding |  |
| B1 |  | binding result (ScCsoR [5]): binds |
| B2 |  | binding result (ScCsoR [6]): no binding |
